Biological target: biotinylated DNP-Ab (anti-DNP antibody modified with biotinamidocaproate N-hydroxysuccinimide ester)
Assay: quartz crystal microbalance; avidin injected onto biotinylated DNP-Ab held on the dinitrosalicylic acid antigen monolayer

## avidin (from UniProt P02701 25-152)
  crystal frequency change Δf: -120 Hz
